These results are taken from publication PMC2747047.

Assay in all cases: purified protein
Data set [1] concerns C[C@@H](O)[C@H]1C(=O)N2C(C(=O)O)=C(SCCN=CN)C[C@H]12. Particulars: Fe/Zn enzyme; buffer not told in main text.
For data set [2], the system named is CO/N=C(\C(=O)N[C@@H]1C(=O)N2C(C(=O)O)=C(COC(C)=O)CS[C@H]12)c1csc(N)n1. Particulars: Fe/Zn enzyme; buffer not told in main text.
The subject of data set [3] is O=C(Cc1cccs1)N[C@@H]1C(=O)N2C(C(=O)O)=C(/C=C/c3ccc([N+](=O)[O-])cc3[N+](=O)[O-])CS[C@H]12. In kind it is biochemical, Arabidopsis thaliana. Particulars: 10 mM MOPS, pH 7.2 (as in Figure 2), Fe/Zn enzyme.

As a reminder, the Km is the concentration of substrate that gives half-maximal velocity. In general, kcat refers to the number of substrate molecules converted per active site and unit of time at saturation. As to Glx2-1 (Arabidopsis thaliana), the Km amounted to 23 ± 3 µM in data set [1], 25 ± 5 µM in data set [2] and 9.9 ± 1.6 µM in data set [3]. Also, the kcat in data set [1] is 0.20 ± 0.01 s⁻¹; in data set [2], 0.20 ± 0.01 s⁻¹; in data set [3], 1.20 ± 0.04 s⁻¹.
